Laboratory results from article PMC3644091.

Target: IP39, 39-kDa integral membrane protein of Euglena gracilis (Euglena gracilis)
Test: cryo-EM structure

stoichiometry N: 3
Substance: IP39, 39-kDa integral membrane protein of Euglena gracilis (natural protein)
